Measurements as given in the Human Domainome abundance scans (Beltran et al. 2025).
± gives the uncertainty stated by the source.

B1: Transcription elongation regulator 1-like protein, residues 448 to 504; numbered along this chain, Q5VWI1 (parent)
chain: LPLEERVTHFRDMLLERGVSAFSTWEKELHKIVFDPRYLLLNSEERKQIFEQFVKTR
B2: Nanos homolog 2, residues 63 to 115; numbered along this chain, P60321 (parent)
chain: CNFCKHNGESRHVYSSHQLKTPDGVVVCPILRHYVCPVCGATGDQAHTLKYCP

Variants of: B1
Test: abundance fitness (aPCA) (normalised: wild type 0, dead -1); higher = more abundant; growth selection in yeast, the domain comes from the species named
Details: Homo sapiens
V7G showed an abundance fitness of -0.407 ± 0.14. K31P gave an abundance fitness of -0.681 ± 0.27. Work on R11D yielded an abundance fitness of -0.909 ± 0.16. S20P showed an abundance fitness of -0.535 ± 0.45. L40D showed an abundance fitness of -1.05 ± 0.36. For W25I, the abundance fitness was -0.393 ± 0.46. F10N gave an abundance fitness of -0.237 ± 0.43. For L3M, the abundance fitness was 0.309 ± 0.18. In the case of Y38T, the abundance fitness is reported as -0.69 ± 0.34. F50D showed an abundance fitness of -0.624 ± 0.25. In the case of Q52I, the abundance fitness is reported as -0.592 ± 0.094. For H9F, the abundance fitness was -0.475 ± 0.48. With E16L the abundance fitness was -1.01 ± 0.49. For K55C, the abundance fitness was -0.382 ± 0.34. L29T showed an abundance fitness of -0.253 ± 0.11. E44T gave an abundance fitness of -0.105 ± 0.084. With E44W the abundance fitness was -0.22 ± 0.12. For K31L, the abundance fitness was -0.781 ± 0.38. S23R gave an abundance fitness of -0.811 ± 0.25. Variant R17P has an abundance fitness of -0.249 ± 0.37. Work on D35W yielded an abundance fitness of -0.861 ± 0.25. D12N gave an abundance fitness of -0.26 ± 0.26. In the case of R37A, the abundance fitness is reported as -1.19 ± 0.43. Work on Q52C yielded an abundance fitness of -0.402 ± 0.099. For L15F, the abundance fitness was -0.325 ± 0.38. With L29P the abundance fitness was -0.722 ± 0.17. Variant D12A has an abundance fitness of -0.335 ± 0.33. For I32P, the abundance fitness was -0.418 ± 0.12. Variant E28G has an abundance fitness of -0.701 ± 0.18.

Variants of: B2
Test: as above
Details: Homo sapiens
C1F showed an abundance fitness of -0.347 ± 0.22. C1G showed an abundance fitness of -0.554 ± 0.071. For C1L, the abundance fitness was -0.745 ± 0.064. Work on C1S yielded an abundance fitness of -0.337 ± 0.17. C1W showed an abundance fitness of -0.941 ± 0.21. C1Y gave an abundance fitness of -0.762 ± 0.4. Work on N2A yielded an abundance fitness of -0.823 ± 0.054. With N2C the abundance fitness was -0.701 ± 0.082. For N2D, the abundance fitness was -0.359 ± 0.13. N2E gave an abundance fitness of -0.663 ± 0.099. N2F showed an abundance fitness of -0.324 ± 0.092. With N2G the abundance fitness was -0.484 ± 0.074. N2H showed an abundance fitness of -0.647 ± 0.12. For N2I, the abundance fitness was -0.157 ± 0.12. In the case of N2K, the abundance fitness is reported as -0.255 ± 0.076. N2L showed an abundance fitness of -0.864 ± 0.061. In the case of N2M, the abundance fitness is reported as -0.861 ± 0.16. With N2P the abundance fitness was -0.812 ± 0.19. N2R gave an abundance fitness of -0.768 ± 0.1. For N2T, the abundance fitness was -0.408 ± 0.087. With N2V the abundance fitness was -0.819 ± 0.084. Variant N2W has an abundance fitness of -0.759 ± 0.08. Variant N2Y has an abundance fitness of -0.254 ± 0.12. In the case of F3C, the abundance fitness is reported as -0.632 ± 0.084. F3D showed an abundance fitness of -0.701 ± 0.1. F3E showed an abundance fitness of -1.22 ± 0.25. In the case of F3G, the abundance fitness is reported as -1.2 ± 0.11. Work on F3H yielded an abundance fitness of -0.502 ± 0.13. F3I showed an abundance fitness of -0.399 ± 0.25. F3K gave an abundance fitness of -1.44 ± 0.43. Work on F3L yielded an abundance fitness of -0.576 ± 0.075. Work on F3M yielded an abundance fitness of -1.06 ± 0.21. In the case of F3N, the abundance fitness is reported as -0.877 ± 0.27. With F3P the abundance fitness was -1.3 ± 0.097. With F3Q the abundance fitness was -0.933 ± 0.094. Work on F3R yielded an abundance fitness of -0.848 ± 0.046. F3S showed an abundance fitness of -0.623 ± 0.047. Variant F3T has an abundance fitness of -0.988 ± 0.19. F3V gave an abundance fitness of -1.01 ± 0.1. Work on F3W yielded an abundance fitness of -0.709 ± 0.13. Variant F3Y has an abundance fitness of -0.117 ± 0.11. In the case of C4A, the abundance fitness is reported as -1.06 ± 0.11. C4E showed an abundance fitness of -0.867 ± 0.13. In the case of C4F, the abundance fitness is reported as -0.423 ± 0.12. Variant C4G has an abundance fitness of -0.802 ± 0.05. Work on C4H yielded an abundance fitness of -0.688 ± 0.22. C4K showed an abundance fitness of -0.63 ± 0.19. Variant C4L has an abundance fitness of -1 ± 0.15. C4M showed an abundance fitness of -1 ± 0.22. In the case of C4N, the abundance fitness is reported as -0.694 ± 0.079. Variant C4P has an abundance fitness of -0.693 ± 0.067. In the case of C4Q, the abundance fitness is reported as -0.959 ± 0.21. With C4R the abundance fitness was -0.933 ± 0.051. C4S showed an abundance fitness of -0.635 ± 0.06. In the case of C4T, the abundance fitness is reported as -0.879 ± 0.088. For C4V, the abundance fitness was -0.952 ± 0.088. With C4Y the abundance fitness was -0.874 ± 0.16. For K5A, the abundance fitness was -0.245 ± 0.057. K5C gave an abundance fitness of -0.249 ± 0.081. In the case of K5D, the abundance fitness is reported as -0.401 ± 0.097. K5E showed an abundance fitness of -0.24 ± 0.083. Variant K5F has an abundance fitness of -0.305 ± 0.11. For K5G, the abundance fitness was -0.699 ± 0.05. K5H showed an abundance fitness of -0.3 ± 0.12. In the case of K5I, the abundance fitness is reported as -0.054 ± 0.11. In the case of K5L, the abundance fitness is reported as -0.144 ± 0.046. K5M showed an abundance fitness of -0.165 ± 0.064. K5N gave an abundance fitness of -0.541 ± 0.12. In the case of K5P, the abundance fitness is reported as -0.691 ± 0.048. K5Q showed an abundance fitness of -0.281 ± 0.11. K5S gave an abundance fitness of -0.313 ± 0.048. K5T gave an abundance fitness of -0.456 ± 0.097. K5W showed an abundance fitness of -0.4 ± 0.054. For K5Y, the abundance fitness was -0.145 ± 0.08. H6A showed an abundance fitness of -0.011 ± 0.07. For H6C, the abundance fitness was -0.099 ± 0.11. Work on H6D yielded an abundance fitness of -0.093 ± 0.1. Work on H6E yielded an abundance fitness of -0.027 ± 0.091. In the case of H6F, the abundance fitness is reported as -0.147 ± 0.11. Variant H6G has an abundance fitness of -0.011 ± 0.056. For H6I, the abundance fitness was -0.062 ± 0.081. For H6K, the abundance fitness was 0.158 ± 0.059. Variant H6L has an abundance fitness of -0.096 ± 0.088. Work on H6M yielded an abundance fitness of -0.047 ± 0.1. In the case of H6N, the abundance fitness is reported as -0.003 ± 0.11. With H6P the abundance fitness was -0.277 ± 0.12. With H6Q the abundance fitness was 0.011 ± 0.12. For H6R, the abundance fitness was 0.078 ± 0.05. With H6S the abundance fitness was 0.039 ± 0.072. With H6T the abundance fitness was -0.091 ± 0.094. H6W gave an abundance fitness of -0.451 ± 0.11. N7A gave an abundance fitness of -0.213 ± 0.11. N7C gave an abundance fitness of -0.316 ± 0.097. N7D showed an abundance fitness of -0.513 ± 0.1. For N7F, the abundance fitness was -0.241 ± 0.11. In the case of N7G, the abundance fitness is reported as -0.144 ± 0.1. N7H gave an abundance fitness of -0.036 ± 0.13. In the case of N7I, the abundance fitness is reported as -0.432 ± 0.17. N7K gave an abundance fitness of 0.021 ± 0.085. For N7L, the abundance fitness was -0.311 ± 0.062. N7M gave an abundance fitness of 0.173 ± 0.12. N7P gave an abundance fitness of -0.764 ± 0.093. Work on N7Q yielded an abundance fitness of -0.263 ± 0.11. In the case of N7R, the abundance fitness is reported as -0.036 ± 0.083. For N7S, the abundance fitness was -0.054 ± 0.061. N7T gave an abundance fitness of -0.122 ± 0.1. In the case of N7V, the abundance fitness is reported as -0.364 ± 0.073. Work on N7W yielded an abundance fitness of -0.47 ± 0.056. With G8A the abundance fitness was -0.196 ± 0.075. G8C showed an abundance fitness of -0.313 ± 0.097. In the case of G8D, the abundance fitness is reported as -0.223 ± 0.096. G8E showed an abundance fitness of -0.119 ± 0.11. Variant G8F has an abundance fitness of -0.202 ± 0.12. In the case of G8H, the abundance fitness is reported as -0.092 ± 0.059. G8K showed an abundance fitness of -0.174 ± 0.13. G8L gave an abundance fitness of -0.23 ± 0.065. G8M gave an abundance fitness of -0.137 ± 0.069. G8N gave an abundance fitness of -0.161 ± 0.11. For G8P, the abundance fitness was -0.343 ± 0.1. G8Q showed an abundance fitness of -0.084 ± 0.098. G8R gave an abundance fitness of -0.063 ± 0.076. Variant G8S has an abundance fitness of -0.08 ± 0.077. In the case of G8T, the abundance fitness is reported as -0.359 ± 0.1. Variant G8V has an abundance fitness of -0.306 ± 0.085. Work on G8W yielded an abundance fitness of -0.342 ± 0.12. E9A gave an abundance fitness of -0.103 ± 0.061. E9C showed an abundance fitness of 0.065 ± 0.11. Work on E9D yielded an abundance fitness of -0.298 ± 0.1. E9F showed an abundance fitness of -0.259 ± 0.072. E9G showed an abundance fitness of -0.274 ± 0.056. Variant E9K has an abundance fitness of -0.007 ± 0.079. For E9L, the abundance fitness was -0.277 ± 0.079. E9M showed an abundance fitness of -0.116 ± 0.073. For E9N, the abundance fitness was -0.153 ± 0.1. E9P gave an abundance fitness of -0.25 ± 0.1. Variant E9Q has an abundance fitness of -0.116 ± 0.14. Variant E9R has an abundance fitness of -0.125 ± 0.066. Work on E9S yielded an abundance fitness of -0.26 ± 0.089.
